The text below walks through data of the DeepSol protein solubility set.

This data set in a line: soluble on expression in E. coli; label from the status in PepcDB or PDB records.
On to “MQNSALKAWLDSSYLSGANQSWIEQLYEDFLTDPDSVDANWRSTFQQLPGTGVKPDQFHSQTREYFRRLAKDASRYSSTISDPDTNVKQVKVLQLINAYRFRGHQHANLDPLGLWQQDKVADLDPSFHDLTEADFQETFNVGSFASGKETMKLGELLEALKQTYCGPIGAEYMHITSTEEKRWIQQRIESGRATFNSEEKKRFLSELTAAEGLERYLGAKFPGAKRFSLEGGDALIPMLKEMIRHAGNSGTREVVLGMAHRGRLNVLVNVLGKKPQDLFDEFAGKHKEHLGTGDVKYHMGFSSDFQTDGGLVHLALAFNPSHLEIVSPVVIGSVRARLDRLDEPSSNKVLPITIHGDAAVTGQGVVQETLNMSKARGYEVGGTVRIVINNQVGFTTSNPLDARSTPYCTDIGKMVQAPIFHVNADDPEAVAFVTRLALDFRNTFKRDVFIDLVCYRRHGHNEADEPSATQPLMYQKIKKHPTPRKIYADKLEQEKVATLEDATEMVNLYRDALDAGDCVVAEWRPMNMHSFTWSPYLNHEWDEEYPNKVEMKRLQELAKRISTVPEAVEMQSRVAKIYADRQAMAAGEKLFDWGGAENLAYATLVDEGIPVRLSGEDSGRGTFFHRHAVIHNQSNGSTYTPLQHIHNGQGAFRVWDSVLSEEAVLAFEYGYATAEPRTLTIWEAQFGDFANGAQVVIDQFISSGEQKWGRMCGLVMLLPHGYEGQGPEHSSARLERYLQLCAEQNMQVCVPSTPAQVYHMLRRQALRGMRRPLVVMSPKSLLRHPLAVSSLEELANGTFLPAIGEIDELDPKGVKRVVMCSGKVYYDLLEQRRKNNQHDVAIVRIEQLYPFPHKAMQEVLQQFAHVKDFVWCQEEPLNQGAWYCSQHHFREVIPFGASLRYAGRPASASPAVGYMSVHQKQQQDLVNDALNVE”, for which the “soluble on expression in E. coli” value was “soluble”.

Regarding “MQNTIIQKAVNKDLNSILEITKDALNAMKTMNFHQWDENYPNEIVFQEDIQAQELYVFKENDEILGFICINEKFKPEFYKQVIFNKNYDDKAFYLHRLAVKQNAKGKGVAQKLLNFCENFALENHKASLRADTHSKNFPMNSLFKKLDFNFCGNFDIPNYQDPFLAYEKILNQKAF”, the “soluble on expression in E. coli” value is recorded as “not soluble”.

With “MQQIFFKDPILGEVLFDQQTKWMYELVETEAFRRLRNIKQLGINFHFYPGGVHT”, the “soluble on expression in E. coli” value is reported as “not soluble”.

On to “MQQQETFRHILSVLVQDVDGIISRVSAMFTRRSFSLVSFVSGKTEMHGINRITIVVDASTQDIEQITKQLNKLIPVLKVVRLDEDVTVARALMLVKVSADASNRPQVVDAAKIFRAHVVDVAPDSVVIEATGNKGKLRALLDVLEPFGIRELISSGQIALNRGSKTMAPQSSRS”, for which the “soluble on expression in E. coli” value is “not soluble”.

“MQQQKTVQPEAKQKVEVGVLAIRGHLYAEQRWQPTIDWLNQQISDVHFELHPLNLDEMGEAVKFQTMDFILTNPGQAVRLGRQYALSWMATLTGRAPQNSNYSIGSALVVRANSPYQTLKDVSGFPVAAVSEKAFGGYLTLRYQIVEMGLDPNDFFADVRYLGFPIDANLYQLRDGNVEAAVVPACLLEQMQNEGLLQHGDFRVLNQQPNEHSSCAVSTPLYPNWSFAKTERGSSLLAKKIAQVLLAMPPEHP”: the “soluble on expression in E. coli” value is reported as “not soluble”.

Consider “MQRIVIVGGGVGGTMLANLLVVRLYPEILGGEVQVLLISDSPDHYYKPAFMYVAFEQFFLEDLKRPQRSLLRPEVMFQLDRVDRFDFPRQELQTRSGRRHGYDYLVIATGCVPAPERIEGLKEAGDHFYQYQPARRLAERLASLESGRVFITVSFPRTPNVPHQCGIAPVETTLMLDDYLRRRGVRERVEIVYTYPTTAQLLRNCLFLQRPTCEILPSLFEQRGIRFQRGFTLARVDPERRIAYSEEGDEQPFDLLMATPPIHAVDAVRECGLPQAAADEGWLPTNHETLQVYGVDRVYTLGDTVDLPVSKAGGACHNQAPVVASNIAAEIRLGKPCAIYDGRVQAVAQMGLNAGMPLWYDYRHDVKPTPPTKLGGLLRQGFNRGLYWAVARGMLLEHHHHHH”, for which the “soluble on expression in E. coli” value is reported as “soluble”.

For the sequence “MQSFNSGSTKIHNAFPEESTRPQKAEGNTAMNILVLGSDSRGSSDADVEANTATDQRADTLMLVHVPADRKKTYAISLMRDLWIDIPGVGESKINAALAYGGVPLMVQTVESLLQQRIDHVAMIDFQGFKGLTDALGGVEVDVRIPFAPSSGPKAGQVYDAGKQTLNGDEALAFVRERKAFSDGDYQRVRNQQAYLKAIIGKVIARETLTNPVTISNMVSAVSPFVSVDKDFDAAAIGSLALSMKDVRAQDTVMFTLPTLGTGTSPDGQSIVLADTTAIADVTAALAKDQVDAYITAHALDKGFLEHHHHHH”, the “soluble on expression in E. coli” value is listed as “soluble”.
